Target: human Siglec-15, full length, expressed on cells (human) (UniProt Q6ZMC9)
Experiment: flow cytometry, THP-1 cells overexpressing human Siglec-15, ADC titrated, anti-human IgG-PE, gMFI

Chain of human Siglec-15, full length, expressed on cells (human) (Q6ZMC9 20-328 limits assumed): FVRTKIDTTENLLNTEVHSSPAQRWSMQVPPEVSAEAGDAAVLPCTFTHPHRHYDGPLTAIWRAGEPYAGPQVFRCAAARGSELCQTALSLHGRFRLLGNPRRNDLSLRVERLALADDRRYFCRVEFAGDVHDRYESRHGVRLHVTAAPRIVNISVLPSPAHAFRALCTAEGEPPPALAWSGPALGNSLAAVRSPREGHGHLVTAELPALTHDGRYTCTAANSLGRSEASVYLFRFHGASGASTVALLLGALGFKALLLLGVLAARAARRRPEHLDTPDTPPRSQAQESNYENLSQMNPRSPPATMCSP

- EC50 (read off the curve): 3 nM
B1: ZLA-1243-E01-Exatecan (protein)
VH: QVQLVQSGGGLVQPGRSLRLSCAASGFTFDDYAMHWVRQAPGKGLEWVSGISWNSGSIGYADSVKGRFTISRDNAKNSLYLQMNSLRAEDTALYYCAKGLWPSYDLDAFDIWGQGTMVTVSS
VL: QSALTQPASVSGSPGQSITLSCTGTSSDVGAYNFVSWYQQHPGTAPKLMIYEVSNRPSGVSDRFSGSKSGNTASLTISGLQAEDEADYYCSSYTSTIPPFVFGTGTKVTVL
modifications: Antibody-drug conjugate: exatecan payload joined through an MC-GGFG linker. The attachment residues are not stated and the letters cannot carry the payload.

From US20250361297A1, “ANTI- SIGLEC-15 BINDING MOLECULES AND METHODS OF USE” (ADAPTAM THERAPEUTICS, S.L., priority 2024, published 2025)
